16 molecules from US20250011397A1 (HOSPITAL FOR SICK CHILDREN, published 2025) can be followed below.

In experiment [1] the target is T1, SARS-CoV-2 receptor binding domain (RBD), wild type, His-tagged (BEI NR52309) (SARS-CoV-2, UniProt P0DTC2 319-541).
T1 construct: also called WT RBD
The experiment can be described thus: RBD KD column; method and antibody format not stated.

Experiment [2] has as its target T1, SARS-CoV-2 receptor binding domain …. Described as above. This is another data set of the same source.
For experiment [3] the target is unchanged.
For experiment [4] the target is unchanged. This is another data set of the same source.
Experiment [5] shares this target. The source holds these as a separate data set.
For experiment [6] the target is unchanged. This is another data set of the same source.
Experiment [7] concerns the target T2, SARS-CoV-2 Spike, prefusion S ectodomain (BEI NR52394), His-tagged (SARS-CoV-2, UniProt P0DTC2 14-1213).
T2 construct: extracellular domain; also called S protein; S glycoprotein
The experiment is described as follows: BLI, His-tagged Spike on Ni-NTA biosensors, 1:1 fit. A general note: Biolayer interferometry detects binding as a change in optical thickness at a sensor tip.

Like-named read-outs stand apart in the source and are kept apart here.

B1: mAb 120 (antibody, V domains shown)
VH: QVQLVQSGAEVKKPGASVKVSCKASGYTFTSYDINWVRQAPGQGLEWMGMIDPSGGSTSYAQKFQGRVTMTRDTSTSTVYMELSSLRSEDTAVYYCAKDFGGGTRYDYWYFDLWGRGTLVTVSS
VL: EIVMTQSPATLSVSPGERATLSCRASQSVSSRYLAWYQQKPGQAPRLLIYGASTRATGIPARFSGSGSGTEFTLTISSLQSEDFAVYYCQQYYTTPRTFGQGTRLEIKR
notes: also called IgG 120
As for B1, the Kd in experiment [1] and in experiment [2] was 24 nM each time.

B2: mAb 160 (antibody, V domains shown)
VH: QVQLVQSGAEVKKPGASVKVSCKASGYTFTGHDMHWVRQAPGQGLEWMGIINPSGGSTSYAQKFQGRVTMTRDTSTSTVYMELSSLRSEDTAVYYCARANSLRYYYGMDVWGQGTMVTVSS
VL: DIQMTQSPSSLSASVGDRVTITCRASQSVSSWLAWYQQKPGKAPKLLIYAASSLQSGVPSRFSGSGSGTDFTLTISSLQPEDFATYYCQQGYTTPYTFGQGTKLEIKR
notes: also called IgG 160
As for B2, the Kd in experiment [1] and in experiment [2] was 7.7 nM throughout.

B3: mAb 46 (antibody, V domains shown)
VH: EVQLLESGGGLVQPGRSLRLSCAASGFTFSSYAMSWVRQAPGKGLEWVSTIYSGGSTYYADSVKGRFTISRDNSKNTLYLQMNSLRAEDTAVYYCARGDSRDAFDIWGQGTMVTVSS
VL: DIQMTQSPSSLSASVGDRVTITCRASQSISSWLAWYQQKPGKAPKLLIYDASNLETGVPSRFSGSGSGTDFTLTISSLQPEDFATYYCQQSYSTPFTFGPGTKVDIKR
notes: also called IgG 46; antibody 46
With B3, the Kd in experiment [1] and in experiment [2] was 83 nM throughout. Moreover, the RBD binding was found to be 0.2 in experiment [3], 0.2 in experiment [4], 1.3 in experiment [5] and 1.2 in experiment [6].

B4: mAb 56 (antibody, V domains shown)
VH: QVQLVQSGAEVKKPGASVKVSCKASGYTFTSYGISWVRQAPGQGLEWMGWISAYNGNTNYAQKLQGRVTMTRDTSTSTVYMELSSLRSEDTAVYYCARDIGPIDYWGQGTLVTVSS
VL: DIQMTQSPSSLSASVGDRVTITCRASQGISSYLAWYQQKPGKAPKLLIYDASNLQSGVPSRFSGSGSGTDFTLTISSLQPEDFATYYCQQANSFPSTFGQGTKVEIKR
notes: also called IgG 56
Consider B4, for which the Kd in experiment [1] and in experiment [2] was 23 nM in each case.

B5: mAb 349 (antibody, V domains shown)
VH: EVQLLESGGGLVQPGGSLRLSCAASGFTFSNYGMHWVRQAPGKGLEWVSGISSAGSITNYADSVKGRFTISRDNSKNTLYLQMNSLRAEDTAVYYCAGNHAGTTVTSEYFQHWGQGTLVTVSS
VL: DIQMTQSPSSLSASVGDRVTITCRASQSISSWLAWYQQKPGKAPKLLIYDTSNLETGVPSRFSGSGSGTDFTLTISSLQPEDFATYYCQQSYTTPWTFGQGTRLEIKR
notes: also called IgG 349
For B5, the Kd in experiment [1] and in experiment [2] was 74 nM each time.

B6: mAb 82 (antibody, V domains shown)
VH: QVQLVQSGAEVKKPGASVKVSCKASGGSFSTSAFYWVRQAPGQGLEWMGWINPYTGGTNYAQKFQGRVTMTRDTSTSTVYMELSSLRSEDTAVYYCARSRALYGSGSYFDYWGQGTLVTVSS
VL: DIQMTQSPSSLSASVGDRVTITCRASQVISNYLAWYQQKPGKAPKLLIYDASNLETGVPSRFSGSGSGTDFTLTISSLQPEDFATYYCQQSFSPPPTFGQGTRLEIKR
notes: also called IgG 82
For the molecule B6, the Kd in experiment [1] and in experiment [2] was 206 nM each time. Moreover, the RBD binding came to 1.4 in experiment [3], 0.6 in experiment [4], 0.6 in experiment [5] and 0.4 in experiment [6].

B7: mAb 108 (antibody, V domains shown)
VH: QVQLVQSGAEVKKPGASVKVSCKASGYIFSRYAIHWVRQAPGQGLEWMGWMNPISGNTDYAPNFQGRVTMTRDTSTSTVYMELSSLRSEDTAVYYCAKDGSQLAYLVEYFQHWGQGTLVTVSS
VL: DIQMTQSPSSLSASVGDRVTITCRASQVITNNLAWYQQKPGKAPKLLIYDASTLETGVPSRFSGSGSGTDFTLTISSLQPEDFATYYCQQSYTFPYTFGQGTKVEIKR
On to B7, for which the Kd in experiment [1] and in experiment [2] was 72 nM throughout.

B8: mAb 324 (antibody, V domains shown)
VH: QVQLVQSGAEVKKPGASVKVSCKASGGTFNNYGISWVRQAPGQGLEWMGWMNPNSGNTGYAQKFQGRVTMTRDTSTSTVYMELSSLRSEDTAVYYCARVGDYGDYIVSPFDLWGRGTLVTVSS
VL: DIQMTQSPSSLSASVGDRVTITCRASQSITTYLNWYQQKPGKAPKLLIYDASNLETGVPSRFSGSGSGTDFTLTISSLQPEDFATYYCQQSYSTPPTFGQGTKVEIKR
notes: also called IgG 324
For the molecule B8, the Kd in experiment [1] and in experiment [2] was 111 nM in each case. For the same molecule, the RBD binding in experiment [3] turned out to be 1.2; in experiment [4], 1; in experiment [5], 0.1; in experiment [6], 0.2.

B9: mAb 64 (antibody, V domains shown)
VH: EVQLLESGGGLVQPGGSLRLSCAASGFPFSQHGMHWVRQAPGKGLEWVSAIDRSGSYIYYADSVKGRFTISRDNSKNTLYLQMNSLRAEDTAVYYCARDTYGGKVTYFDYWGQGTLVTVSS
VL: DIQMTQSPSSLSASVGDRVTITCRASQGISSHLAWYQQKPGKAPKLLIYDASNLETGVPSRFSGSGSGTDFTLTISSLQPEDFATYYCQQTYSTPWTFGQGTKVEIKR
notes: also called IgG 64
For the molecule B9, the equilibrium dissociation constant (Kd) in experiment [1] and in experiment [2] was 97 nM each time.

B10: mAb 158 (antibody, V domains shown)
VH: QVQLVQSGAEVKKPGASVKVSCKASGYTFTGYYMHWVRQAPGQGLEWMGWINPLNGGTNFAPKFQGRVTMTRDTSTSTVYMELSSLRSEDTAVYYCARDPGGSYSNDAFDIWGQGTLVTVSS
VL: DIQMTQSPSSLSASVGDRVTITCRASQSISRYLNWYQQKPGKAPKLLIYDASNLESGVPSRFSGSGSGTDFTLTISSLQPEDFATYYCQQANSFPLTFGGGTKVDIKR
notes: also called IgG 158
Regarding B10, the Kd in experiment [1] and in experiment [2] was 172 nM throughout.

B11: mAb 128 (antibody, V domains shown)
VH: QVQLVQSGAEVKKPGASVKVSCKASGYTFTHYYMHWVRQAPGQGLEWMGIINPSSSSASYSQKFQGRVTMTRDTSTSTVYMELSSLRSEDTAVYYCARDGRYGSGSYPFDYWGQGTLVTVSS
VL: DIQMTQSPSSLSASVGDRVTITCRASQNISRYLNWYQQKPGKAPKLLIYDASNLETGVPSRFSGSGSGTDFTLTISSLQPEDFATYYCQQANGFPPTFGQGTKLEIKR
For B11, the Kd in experiment [1] and in experiment [2] was 57 nM throughout.

B12: mAb 254 (antibody, V domains shown)
VH: EVQLLESGGGLVQPGGSLRLSCAASGFTFSSSAMHWVRQAPGKGLEWVSAIGTGGDTYYADSVKGRFTISRDNSKNTLYLQMNSLRAEDTAVYYCAREGDGYNFYFDYWGQGTLVTVSS
VL: DIQMTQSPSSLSASVGDRVTITCRASQGISSYLAWYQQKPGKAPKLLIYDASSLQIGVPSRFSGSGSGTDFTLTISSLQPEDFATYYCLQSYSTPPWTFGQGTKVEIKR
notes: also called IgG 254
On to B12, for which the Kd in experiment [1] and in experiment [2] was 127 nM each time.

B13: mAb 236 (antibody, V domains shown)
VH: QVQLVQSGAEVKKPGASVKVSCKASGGTFTSYGINWVRQAPGQGLEWMGWMNPNSGNTGYAQKFQGRVTMTRDTSTSTVYMELSSLRSEDTAVYYCASRGIQLLPRGMDVWGQGTTVTVSS
VL: not shown
notes: also called IgG 236
As for B13, the Kd in experiment [1] and in experiment [2] was 145 nM throughout. Also, the RBD binding came to 1.2 in experiment [3], 1 in experiment [4], 0.1 in experiment [5] and 0.2 in experiment [6].

B14: mAb 52 (antibody, V domains shown)
VH: QVQLVQSGAEVKKPGSSVKVSCKASGYTFTSYGISWVRQAPGQGLEWMGGIIPMFGTTNYAQKFQGRVTITADKSTSTAYMELSSLRSEDTAVYYCARDRGDTIDYWGQGTLVTVSS
VL: DIQMTQSPSSLSASVGDRVTITCRASQGISNNLNWYQQKPGKAPKLLIYAASSLESGVPSRFSGSGSGTDFTLTISSLQPEDFATYYCQQGNGFPLTFGPGTKVDIKR
notes: also called IgG 52; antibody 52
B14: the RBD binding in experiment [3] was 0.5; in experiment [4], 0.4; in experiment [5], 1.3; in experiment [6], 0.8.

B15: 4A8 IgG (antibody, V domains shown)
VH: EVQLVESGAEVKKPGASVKVSCKVSGYTLTELSMHWVRQAPGKGLEWMGGFDPEDGETMYAQKFQGRVTMTEDTSTDTAYMELSSLRSEDTAVYYCATSTAVAGTPDLFDYYYGMDVWGQGTTVTVSS
VL: EIVMTQSPLSSPVTLGQPASISCRSSQSLVHSDGNTYLSWLQQRPGQPPRLLIYKISNRFSGVPDRFSGSGAGTDFTLKISRVEAEDVGVYYCTQATQFPYTFGQGTKVDIK
notes: also called IgG 4A8
Regarding B15, in experiment [7], binding was characterised by a dissociation constant (Kd) of 1.42 nM, the koff came out at 0.000191 s⁻¹ and the kon came out at 133000 M⁻¹ s⁻¹.

B16: mAb 178 (antibody, V domains shown)
VH: QVQLVQSGAEVKKPGASVKVSCKASGYTFTDYHMHWVRQAPGQGLEWMGWINPNSGGTNYAQKFQGRVTMTRDTSTSTVYMELSSLRSEDTAVYYCARDISSWYEITKFDPWGQGTLVTVSS
VL: EIVMTQSPATLSVSPGERATLSCKASQSVSGTYLAWYQQKPGQAPRLLIYGASTRATGIPARFSGSGSGTEFTLTISSLQSEDFAVYYCLQTHSYPPTFGQGTKVEIKR
notes: also called IgG 178
With B16, the Kd in experiment [1] and in experiment [2] was 72 nM in each case.

For orientation: Kd means the concentration at which binding is half-saturated. High values mean a looser complex, low ones a tighter complex. Broadly, the koff is the first-order rate constant of dissociation. A low value points to slow dissociation. By kon is commonly meant the rate constant with which the complex forms. Higher therefore signals faster complex formation.
